Data reported in patent publication US6034212.

Columns and labels:
[1] = biological target: GST-…; experiment: blot of mutant ligand proteins probed with 32P-labelled GST-WW-YAP
[2] = biological target: GST-… fusion protein (mouse); experiment: Western ligand blot, reference GST-WBP-1 (1-74)

fold reduction of binding against wild-type PY [1]: 2 fold
signal relative to the N-terminal construct [2]: 80%
Substance: GST-WW-YAP fusion protein (WW domain of human YAP in pGEX-2TK)
